Test results published in publication PMC2903388.

Experiments:
[1] = target: Mouse tail tendon type I collagen homotrimer α1(I)3 (mouse) (UniProt P11087); assay: equilibrium microdialysis
[2] = target: Mouse tail tendon type I collagen heterotrimer α1(I)2α2(I) (mouse) (UniProt P11087); assay: equilibrium microdialysis
Sequence of Mouse tail tendon type I collagen heterotrimer α1(I)2α2(I) (mouse) (P11087 152-1207, chain 1 of 2): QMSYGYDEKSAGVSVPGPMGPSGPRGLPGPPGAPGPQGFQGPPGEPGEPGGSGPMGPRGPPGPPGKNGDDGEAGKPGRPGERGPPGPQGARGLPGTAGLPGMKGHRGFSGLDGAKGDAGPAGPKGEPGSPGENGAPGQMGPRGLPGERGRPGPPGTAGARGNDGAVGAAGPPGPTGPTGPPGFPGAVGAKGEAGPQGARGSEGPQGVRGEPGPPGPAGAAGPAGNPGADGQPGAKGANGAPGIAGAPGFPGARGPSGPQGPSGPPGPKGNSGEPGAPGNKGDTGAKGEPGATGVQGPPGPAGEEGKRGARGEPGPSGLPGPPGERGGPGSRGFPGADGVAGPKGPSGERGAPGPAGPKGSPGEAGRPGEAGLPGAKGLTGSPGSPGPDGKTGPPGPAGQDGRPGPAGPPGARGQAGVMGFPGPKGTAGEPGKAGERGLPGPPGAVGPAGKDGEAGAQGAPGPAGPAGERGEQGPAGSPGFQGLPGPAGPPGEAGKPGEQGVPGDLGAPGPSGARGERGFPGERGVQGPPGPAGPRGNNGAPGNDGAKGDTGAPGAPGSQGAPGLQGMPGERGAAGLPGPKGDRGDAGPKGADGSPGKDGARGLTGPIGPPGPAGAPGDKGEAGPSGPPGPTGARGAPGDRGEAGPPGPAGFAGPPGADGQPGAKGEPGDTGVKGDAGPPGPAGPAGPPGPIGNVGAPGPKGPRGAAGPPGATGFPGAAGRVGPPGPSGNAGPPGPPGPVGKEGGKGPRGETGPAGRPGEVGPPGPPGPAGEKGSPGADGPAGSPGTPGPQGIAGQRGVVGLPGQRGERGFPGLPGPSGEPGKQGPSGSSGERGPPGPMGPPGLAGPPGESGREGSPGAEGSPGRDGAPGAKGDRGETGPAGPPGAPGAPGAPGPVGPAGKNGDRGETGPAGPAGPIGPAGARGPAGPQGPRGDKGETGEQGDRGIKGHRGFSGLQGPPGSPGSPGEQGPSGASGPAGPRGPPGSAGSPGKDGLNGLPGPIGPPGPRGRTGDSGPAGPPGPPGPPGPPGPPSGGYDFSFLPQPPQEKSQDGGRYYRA
Sequence of Mouse tail tendon type I collagen heterotrimer α1(I)2α2(I) (mouse) (Q01149 86-1125, chain 2 of 2, further chain): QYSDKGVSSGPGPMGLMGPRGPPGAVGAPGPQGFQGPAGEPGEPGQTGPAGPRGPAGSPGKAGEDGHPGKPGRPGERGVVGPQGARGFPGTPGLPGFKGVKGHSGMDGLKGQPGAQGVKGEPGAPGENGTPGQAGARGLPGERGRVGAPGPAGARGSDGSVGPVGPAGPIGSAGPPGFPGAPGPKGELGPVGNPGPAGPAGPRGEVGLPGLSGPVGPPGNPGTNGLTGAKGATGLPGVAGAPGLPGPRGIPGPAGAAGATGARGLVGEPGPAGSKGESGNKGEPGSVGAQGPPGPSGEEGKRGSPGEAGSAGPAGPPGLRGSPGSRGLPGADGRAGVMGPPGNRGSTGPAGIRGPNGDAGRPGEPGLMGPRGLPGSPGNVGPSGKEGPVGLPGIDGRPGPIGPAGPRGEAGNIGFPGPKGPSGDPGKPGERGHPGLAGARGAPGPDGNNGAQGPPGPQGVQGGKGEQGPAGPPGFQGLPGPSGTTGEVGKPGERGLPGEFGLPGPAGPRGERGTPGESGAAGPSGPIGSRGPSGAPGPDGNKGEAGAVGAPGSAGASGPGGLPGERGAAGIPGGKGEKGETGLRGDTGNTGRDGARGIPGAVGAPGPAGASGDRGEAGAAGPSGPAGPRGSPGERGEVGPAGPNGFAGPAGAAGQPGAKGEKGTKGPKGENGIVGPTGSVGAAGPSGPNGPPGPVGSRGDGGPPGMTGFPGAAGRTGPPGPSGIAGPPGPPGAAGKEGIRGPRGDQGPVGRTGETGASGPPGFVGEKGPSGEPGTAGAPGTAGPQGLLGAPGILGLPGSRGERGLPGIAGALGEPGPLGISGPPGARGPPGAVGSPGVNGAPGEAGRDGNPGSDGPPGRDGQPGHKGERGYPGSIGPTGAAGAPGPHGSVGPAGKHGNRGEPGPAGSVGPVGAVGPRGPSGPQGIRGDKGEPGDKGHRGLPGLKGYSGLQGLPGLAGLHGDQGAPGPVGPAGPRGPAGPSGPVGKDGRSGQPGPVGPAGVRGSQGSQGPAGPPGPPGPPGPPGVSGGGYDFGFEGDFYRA

Sequence of Mouse tail tendon type I collagen homotrimer α1(I)3 (mouse) (P11087 152-1207): as the sequence (P11087 152-1207, chain 1 of 2) above

KD, high-affinity site [1]: 1300 nM
KD, low-affinity sites [1]: > 50000 nM
N, high-affinity site (MMP-1(E200A) per collagen triple helix) [1]: 1
KD, high-affinity site [2]: 1300 nM
KD, low-affinity sites [2]: > 50000 nM
N, high-affinity site (MMP-1(E200A) per collagen triple helix) [2]: 1
Substance: MMP-1(E200A), activated recombinant human fibroblast collagenase with Glu-200 substituted with Ala (enzyme)
